Legend:
MBP-OsWRKY76 [1] = target: T1, MBP-OsWRKY76 (Oryza sativa (rice), UniProt Q6EPZ2 1-327); test: EMSA; DIG Gel Shift Kit 2nd generation (Roche); buffer, salt, pH and temperature not stated; conditions: protein: recombinant; tags: MBP (N-terminal, pMALc2x); label: DIG
T1 sequence: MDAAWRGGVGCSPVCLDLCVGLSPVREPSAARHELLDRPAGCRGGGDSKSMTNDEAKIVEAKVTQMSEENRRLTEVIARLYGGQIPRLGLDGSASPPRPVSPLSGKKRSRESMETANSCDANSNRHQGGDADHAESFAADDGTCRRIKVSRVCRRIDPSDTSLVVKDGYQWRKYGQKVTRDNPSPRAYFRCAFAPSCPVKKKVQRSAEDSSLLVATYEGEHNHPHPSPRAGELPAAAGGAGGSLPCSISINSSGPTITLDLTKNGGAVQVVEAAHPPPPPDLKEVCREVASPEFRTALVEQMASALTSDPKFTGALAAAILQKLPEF

MBP-OsWRKY76 [2] = target: T1, MBP-OsWRKY76; test: competition; excess unlabelled WB vs DIG-WB; DIG Gel Shift Kit 2nd generation (Roche); buffer, salt, pH and temperature not stated; conditions: protein: recombinant; tags: MBP (N-terminal, pMALc2x)
MBP-OsWRKY76 [3] = target: T1, MBP-OsWRKY76; test: competition; excess unlabelled mWB vs DIG-WB; DIG Gel Shift Kit 2nd generation (Roche); buffer, salt, pH and temperature not stated; conditions: protein: recombinant; tags: MBP (N-terminal, pMALc2x)

B1: WB (W-box probe) (dsDNA)
DNA 1: AACTTTGACCAATCTTTCAAGTA
DNA 2: TACTTGAAAGATTGGTCAAAGTT
MBP-OsWRKY76 [1]
  binding result: binds

B2: mWB (mutated W-box probe) (dsDNA)
DNA 1: AACTTTGAACAATCTTTCAAGTA
DNA 2: TACTTGAAAGATTGTTCAAAGTT
MBP-OsWRKY76 [1]
  binding result: no binding

B3: WB unlabelled competitor (dsDNA)
DNA 1: AACTTTGACCAATCTTTCAAGTA
DNA 2: TACTTGAAAGATTGGTCAAAGTT
MBP-OsWRKY76 [2]
  binding result: binds

B4: mWB unlabelled competitor (dsDNA)
DNA 1: AACTTTGAACAATCTTTCAAGTA
DNA 2: TACTTGAAAGATTGTTCAAAGTT
MBP-OsWRKY76 [3]
  binding result: no binding

Reference: article PMC3830488, “WRKY76 is a rice transcriptional repressor playing opposite roles in blast disease resistance and cold stress tolerance”
